The text below walks through data of publication PMC10397247.

In experiment [1] the target is T1, 4H2728-AA.
T1 chain: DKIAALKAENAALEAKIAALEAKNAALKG
The experiment can be described thus: two-hybrid library CCmax.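 Further: natural log of median RNA to DNA barcode read ratio; higher means stronger binding.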 The conditions noted are these: mean of both orientations.

Experiment [2] concerns the target T2, 4H2699-AA.
T2 chain: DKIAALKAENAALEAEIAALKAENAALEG
Briefly: two-hybrid library CCmax.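 Further: natural log of median RNA to DNA barcode read ratio; higher means stronger binding.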 Conditions: mean of both orientations.

The target of experiment [3] is T3, 4H1558-AA.
T3 chain: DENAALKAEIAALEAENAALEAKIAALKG
The experiment can be described thus: two-hybrid library CCmax.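 Further: natural log of median RNA to DNA barcode read ratio; higher means stronger binding.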 The conditions noted are these: mean of both orientations.

Experiment [4] deals with T4, 4H3595-AA.
T4 chain: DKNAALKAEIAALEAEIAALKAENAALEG
Briefly: two-hybrid library CCmax.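 Further: natural log of median RNA to DNA barcode read ratio; higher means stronger binding.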 The conditions noted are these: mean of both orientations.

In experiment [5] the target is T5, 4H341-AA.
T5 chain: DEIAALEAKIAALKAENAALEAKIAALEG
Briefly: two-hybrid library CCmax. Conditions: mean of both orientations.

Experiment [6] deals with T6, 4H3414-AA.
T6 chain: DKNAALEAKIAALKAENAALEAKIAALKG
Briefly: two-hybrid library CCmax. The conditions noted are these: mean of both orientations.

Experiment [7] concerns the target T7, 4H63-AA.
T7 chain: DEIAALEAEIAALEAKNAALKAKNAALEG
Briefly: two-hybrid library CCmax. The conditions noted are these: mean of both orientations.

In experiment [8] the target is T8, 4H3049-AA.
T8 chain: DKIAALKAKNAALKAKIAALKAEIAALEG
Briefly: two-hybrid library CCmax. The conditions noted are these: mean of both orientations.

For experiment [9], the target named is T9, 4H249-AA.
T9 chain: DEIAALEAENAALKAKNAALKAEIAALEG
The experiment can be described thus: two-hybrid library CCmax. Conditions: mean of both orientations.

The target of experiment [10] is T10, 4H2903-AA.
T10 chain: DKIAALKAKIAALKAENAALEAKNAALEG
The experiment can be described thus: two-hybrid library CCmax. The conditions noted are these: mean of both orientations.

Experiment [11] concerns the target T11, 4H1913-AA.
T11 chain: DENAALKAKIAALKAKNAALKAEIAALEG
The experiment can be described thus: two-hybrid library CCmax. The conditions noted are these: mean of both orientations.

The target of experiment [12] is T12, 4H2621-AA.
T12 chain: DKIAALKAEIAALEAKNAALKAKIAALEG
Briefly: two-hybrid library CCmax. Conditions: mean of both orientations.

Experiment [13] concerns the target T13, 4H2961-AA.
T13 chain: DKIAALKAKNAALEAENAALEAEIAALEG
The experiment can be described thus: two-hybrid library CCmax. The conditions noted are these: mean of both orientations.

The target of experiment [14] is T14, 4H3939-AA.
T14 chain: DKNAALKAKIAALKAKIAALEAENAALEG
The experiment can be described thus: two-hybrid library CCmax. Conditions: mean of both orientations.

For experiment [15], the target named is T15, 4H483-AA.
T15 chain: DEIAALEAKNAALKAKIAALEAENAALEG
Briefly: two-hybrid library CCmax. Conditions: mean of both orientations.

The target in experiment [16] is T16, 4H3129-AA.
T16 chain: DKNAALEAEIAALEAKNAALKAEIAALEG
Briefly: two-hybrid library CCmax. The conditions noted are these: mean of both orientations.

For experiment [17], the target named is T17, 4H464-AA.
T17 chain: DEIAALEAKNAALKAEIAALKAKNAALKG
Briefly: two-hybrid library CCmax. The conditions noted are these: mean of both orientations.

Experiment [18] concerns the target T18, 4H3629-AA.
T18 chain: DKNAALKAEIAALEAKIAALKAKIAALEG
Briefly: two-hybrid library CCmax. The conditions noted are these: mean of both orientations.

In experiment [19] the target is T19, 4H3782-AA.
T19 chain: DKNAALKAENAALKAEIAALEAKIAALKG
The experiment can be described thus: two-hybrid library CCmax. Conditions: mean of both orientations.

In experiment [20] the target is T20, 4H446-AA.
T20 chain: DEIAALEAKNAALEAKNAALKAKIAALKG
The experiment can be described thus: two-hybrid library CCmax. The conditions noted are these: mean of both orientations.

The target of experiment [21] is T21, 4H1360-AA.
T21 chain: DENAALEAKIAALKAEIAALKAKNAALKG
The experiment can be described thus: two-hybrid library CCmax.

In experiment [22] the target is T22, 4H2774-AA.
T22 chain: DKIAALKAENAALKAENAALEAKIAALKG
Briefly: two-hybrid library CCmax. Conditions: mean of both orientations.

The target of experiment [23] is T23, 4H3969-AA.
T23 chain: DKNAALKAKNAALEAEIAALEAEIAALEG
Briefly: two-hybrid library CCmax. The conditions noted are these: mean of both orientations.

Experiment [24] addresses T24, 4H380-AA.
T24 chain: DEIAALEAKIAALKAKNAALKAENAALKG
The experiment can be described thus: two-hybrid library CCmax. The conditions noted are these: mean of both orientations.

Experiment [25] has as its target T25, 4H2580-AA.
T25 chain: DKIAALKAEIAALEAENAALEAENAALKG
Briefly: two-hybrid library CCmax. Conditions: mean of both orientations.

For experiment [26], the target named is T26, 4H1454-AA.
T26 chain: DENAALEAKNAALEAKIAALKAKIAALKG
Briefly: two-hybrid library CCmax. The conditions noted are these: mean of both orientations.

The target in experiment [27] is T27, 4H1804-bN.
T27 chain: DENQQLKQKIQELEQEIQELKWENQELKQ
Briefly: two-hybrid library CCNG1.

Experiment [28] concerns the target T28, 4H3638-bN.
T28 chain: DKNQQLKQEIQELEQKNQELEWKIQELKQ
Briefly: two-hybrid library CCNG1.

Experiment [29] addresses T29, 4H1985-bN.
T29 chain: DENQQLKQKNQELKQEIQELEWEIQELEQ
The experiment can be described thus: two-hybrid library CCNG1.

The target in experiment [30] is T30, 4H2586-bN.
T30 chain: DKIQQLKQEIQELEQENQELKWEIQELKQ
The experiment can be described thus: two-hybrid library CCNG1.

For experiment [31], the target named is T31, 4H2839-bN.
T31 chain: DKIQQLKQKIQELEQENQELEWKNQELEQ
Briefly: two-hybrid library CCNG1.

Experiment [32] concerns the target T32, 4H3129-bN.
T32 chain: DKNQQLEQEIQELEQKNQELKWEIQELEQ
The experiment can be described thus: two-hybrid library CCNG1.

The target of experiment [33] is T33, 4H3631-bN.
T33 chain: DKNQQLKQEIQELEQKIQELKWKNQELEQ
Briefly: two-hybrid library CCNG1.

Experiment [34] concerns the target T34, 4H584-bN.
T34 chain: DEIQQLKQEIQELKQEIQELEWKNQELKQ
Briefly: two-hybrid library CCNG1.

Experiment [35] has as its target T35, 4H1629-bN.
T35 chain: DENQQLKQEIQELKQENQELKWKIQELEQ
Briefly: two-hybrid library CCNG1.

The target of experiment [36] is T36, 4H3414-bN.
T36 chain: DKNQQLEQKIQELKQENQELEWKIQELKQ
The experiment can be described thus: two-hybrid library CCNG1.

For experiment [37], the target named is T37, 4H619-bN.
T37 chain: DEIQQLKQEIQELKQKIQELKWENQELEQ
The experiment can be described thus: two-hybrid library CCNG1.

Experiment [38] has as its target T38, 4H906-bN.
T38 chain: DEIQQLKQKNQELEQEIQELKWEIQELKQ
Briefly: two-hybrid library CCNG1.

Experiment [39] addresses T39, 4H850-bN.
T39 chain: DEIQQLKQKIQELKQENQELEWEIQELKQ
Briefly: two-hybrid library CCNG1.

Experiment [40] has as its target T40, 4H3172-bN.
T40 chain: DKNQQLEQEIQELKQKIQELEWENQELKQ
Briefly: two-hybrid library CCNG1.

For experiment [41], the target named is T41, 4H570-bN.
T41 chain: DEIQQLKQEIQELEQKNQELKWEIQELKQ
The experiment can be described thus: two-hybrid library CCNG1.

Experiment [42] addresses T42, 4H3974-bN.
T42 chain: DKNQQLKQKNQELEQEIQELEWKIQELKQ
Briefly: two-hybrid library CCNG1.

Experiment [43] concerns the target T43, 4H1710-bN.
T43 chain: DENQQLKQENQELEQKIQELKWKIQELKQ
The experiment can be described thus: two-hybrid library CCNG1.

For experiment [44], the target named is T44, 4H3817-bN.
T44 chain: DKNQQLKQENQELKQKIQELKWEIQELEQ
Briefly: two-hybrid library CCNG1.

Consider DENAALEAKIAALKAEIAALKAKNAALKG [4H1360-AA], for which the interaction score in [1] is -1.69; in experiment [2] it was 0.416; in [3] it was -0.811; in experiment [4] it was 2; in [5] it was 0.0278; in experiment [6], -1.25. In addition, the interaction score in experiment [7] was 0.265; in [8], -0.108; in experiment [9], -1.76; in [10], 0.0597; in [11] it was -1.61; in experiment [12] it was -1.11. Besides, the interaction score in experiment [13] was -1.52; in experiment [14], 0.656; in [15], -1.58; in experiment [16], -1.34; in [17], -1.69; in experiment [18], 0.958. The interaction score in experiment [19] was -0.0635; in [20], -1.69; in experiment [21] it was -0.121; in [22], -1.2; in experiment [23], 0.163; in [24] it was -1.11. For the same molecule, the results for the interaction score in [25] and in experiment [26] were 1.2 and -1.08, respectively.

Regarding DENQQLKQEIQELKQENQELKWKIQELEQ [4H1629-bN], the interaction score in experiment [27] was -2.35; in experiment [28], -1.43; in [29], -0.575; in experiment [30], -1.65; in experiment [31], -1.72; in experiment [32] it was -0.732. In addition, the interaction score was -0.59 in experiment [33]; -0.0341 in experiment [34]; 1.42 in [35]; -0.735 in [36]; -0.476 in [37]; -1.39 in experiment [38]. Moreover, the interaction score in [39] is -0.949; in [40], -0.119; in experiment [41] it was -2.4; in experiment [42] it was -0.785; in [43] it was -0.768; in experiment [44], -2.51.
